Laboratory results from patent US20240350653A1 (JOINT STOCK COMPANY GENERIUM, published 2024).

B1: HIR-FAB-IDS (SEQ ID NO: 2 and SEQ ID NO: 5) (Fab)
light: DIQMTQSPSSLSASLGERVSLTCRASQDIGGNLYWLQQGPDGTIKRLIYATSSLDSGVPKRFSGSRSGSDYSLTISSLESEDFVDYYCLQYSSSPWTFGGGTKMEIKRTVAAPSVFIFPPSDEQLKSGTASVVCLLNNFYPREAKVQWKVDNALQSGNSQESVTEQDSKDSTYSLSSTLTLSKADYEKHKVYACEVTHQGLSSPVTKSFNRGEC
heavy: QVQLQQSGPELVKPGALVKISCKASGYTFTNYDIHWVKQRPGQGLEWIGWIYPGDGSTKYNEKFKGKATLTADKSSSTAYMHLSSLTSEKSAVYFCAREWAYWGQGTLVTVSAASTKGPSVFPLAPSSKSTSGGTAALGCLVKDYFPEPVTVSWNSGALTSGVHTFPAVLQSSGLYSLSSVVTVPSSSLGTQTYICNVNHKPSNTKVDKKVEPKSCDKTHGGGGSGGGGSGGGGSSETQANSTTDALNVLLIIVDDLRPSLGCYGDKLVRSPNIDQLASHSLLFQNAFAQQAVCAPSRVSFLTGRRPDTTRLYDFNSYWRVHAGNFSTIPQYFKENGYVTMSVGKVFHPGISSNHTDDSPYSWSFPPYHPSSEKYENTKTCRGPDGELHANLLCPVDVLDVPEGTLPDKQSTEQAIQLLEKMKTSASPFFLAVGYHKPHIPFRYPKEFQKLYPLENITLAPDPEVPDGLPPVAYNPWMDIRQREDVQALNISVPYGPIPVDFQRKIRQSYFASVSYLDTQVGRLLSALDDLQLANSTIIAFTSDHGWALGEHGEWAKYSNFDVATHVPLIFYVPGRTASLPEAGEKLFPYLDPFDSASQLMEPGRQSMDLVELVSLFPTLAGLAGLQVPPRCPVPSFHVELCREGKNLLKHFRFRDLEEDPYLPGNPRELIAYSQYPRPSDIPQWNSDKPSLKDIKIMGYSIRTIDYRYTVWVGFNPDEFLANFSDIHAGELYFVDSDPLQDHNMYNDSQGGDLFQLLMP
notes: Variant of the Fab-iduronate-2-sulfatase fusion

How the values were obtained:
[1] = molecular target: mouse insulin receptor (mInsR, R&D Systems, Inc., Cat. No. 7544-MR) (mouse) (UniProt P15208); assay: ELISA on mouse insulin receptor
[2] = molecular target: Human Insulin Receptor protein fragment (Abcam cat #ab200510) (human) (UniProt P06213); assay: ELISA on human insulin receptor fragment
[3] = molecular target: Human Insulin Receptor protein fragment (Abcam cat #ab200510) (human) (UniProt P06213); assay: ELISA on human insulin receptor fragment, relative to 83-14 mAb
[4] = molecular target: T1, mouse insulin receptor (mInsR, R&D Systems, Inc., Cat. No. 7544-MR) (mouse, UniProt P15208 28-946, limits assumed); assay: ELISA on mouse insulin receptor
T1 construct: extracellular domain; Bought protein; also called extracellular domain of the mouse insulin receptor

[5] = molecular target: T2, Human Insulin Receptor protein fragment (Abcam cat #ab200510) (human, UniProt P06213-2 28-944, limits assumed); assay: ELISA on human insulin receptor fragment
T2 construct: domain: extracellular domain of the alpha subunit; Bought fragment; also called HIR; extracellular domain of the alpha subunit of the human insulin receptor

[6] = molecular target: T2, Human Insulin Receptor protein fragment …; assay: ELISA on human insulin receptor fragment, relative to 83-14 mAb

Row | Molecule | EC50 [1] | EC50 [2] | Receptor binding from antibody 83-14 mAb, % [3] | EC50 [4] | Receptor binding, % [4] | EC50 [5] | Receptor binding from antibody 83-14 mAb, % [6]
1 | Mouse Anti-Human Insulin Receptor Clone 83-14 mAb (Cell sciences, cat# MAI1) (antibody) | > 0.8 µg/mL | 0.0331 µg/mL | 100% | – | – | – | –
2 | HIR-MAB-IDS (antibody) | > 0.8 µg/mL | 0.0262 µg/mL | 126% | – | – | – | –
3 | INSR/Insulin Receptor alpha Antibody 83-14 (Life technologies, cat#AHR0221) | > 0.8 µg/mL | 0.0321 µg/mL | 102% | – | – | – | –
4 | B1 | – | – | – | > 0.8 µg/mL | 0% | 0.0503 µg/mL | 66%
